# In the supplement of paper PMC9170038:
# System: MS2 coat protein
# Assay: apparent KD of MS2 coat protein; designed switch direction (-1 OFF switch, 1 ON switch): -1; higher = weaker reporter binding
# Summary of the method: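 Transcription of designed RNA switches on Illumina chips was done by stalled E. coli RNA polymerase. SNAP-549-labelled MS2 coat protein was then titrated in doubling steps from 0.7 or 1.5 nM to 3 µM, with steps of 0.8–1.5 h at the lowest and 10–20 min at the highest concentration. The per-design median over clusters of curve-fitted normalised fluorescence is reported as apparent KD.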
# [1] = Eterna round: R95, input ligand: microRNA oligo, concentration not stated
# [2] = Eterna round: R95, input ligand: FMN 200 uM
# [3] = Eterna round: R95, input ligand: none
# [4] = input ligand: microRNA oligo, concentration not stated
Sequence,apparent KD of MS2 coat protein [1] [nM],apparent KD of MS2 coat protein (input ligand: FMN 200 uM) [nM],apparent KD of MS2 coat protein (input ligand: none) [nM],apparent KD of MS2 coat protein [2] [nM],apparent KD of MS2 coat protein [3] [nM],apparent KD of MS2 coat protein [4] [nM]
CCGGAAGUACAGGAUAUCGUAACGGAAACGUUACGAGAAGGGUAUACAUGAGGAUCACCCAUGUGUCCUACCGG [Mat - Exclusion 6 - Eli Mod - D93] (puzzle: Exclusion 6),22.6,,,,,
"CACAACAGAGGAUAUACAUGAGGAUCACCCAUGUGUUCCAGCUAGGAGACUAGCAAGUGUAGAAGGCUGUUGUG [Mat - Exclusion 3 - JL Mod - D10] (Eterna round: R97, puzzle: Exclusion 3)",,269,501,,,
"GCAUGUCAGUAGGAUAUGCAGCACUUGAUACCUGCAGAAGGACUGACAUGAGGAUCACCCAUGUCUCGGGUGCU [EX6 A.10] (Eterna round: R97, puzzle: Exclusion 6)",,16.8,149,,,
"UUUUACUCAGGAUAUACAUGAGGAUCACCCAUGUAUAUUGAAGAUAAUACAUGGGAAUGUAGAAGGGAGCUCAU [Omei Ex3 Pseudoloop 18] (Eterna round: R97, puzzle: Exclusion 3)",,190,179,,,
GAUUGAGAGCAGGAUAUCAUAGAAAUGUAUGAAUGAGAAGGGCUCACAUGAGGAUCACCCAUGUGGUCCUAGAU [JL Dibiri mod 18] (puzzle: Exclusion 6),21.9,,,,,
"GCAAAAUAUCAGGAUAUGACUAAUUGCGUUAAGUCAGAAGGGAUAACAUGAGGAUCACCCAUGUGAUAUAGUGU [JR_Ex6_Sub030] (Eterna round: R97, puzzle: Exclusion 6)",,237,169,,,
UGAAUGUGAGGAUAUGGUGAGUAGUGCCUGAGCGCUGCUCACCAGAAGGCACAUGAGGAUCACCCAUGUACUUG [JL-ex4-2.07 denovo] (puzzle: Exclusion 4),49.4,,,,,
"UCAUGUCCUGAGGAUAUGCAGCGGAUAAACGCAGCAGAAGGCAGGACAUGAGGAUCACCCAUGUGUGCCUUCUA [Exclusion 6 Mod5 of JL of Mod of Letion by ViennaUCT] (Eterna round: R97, puzzle: Exclusion 6)",,18.3,190,,,
"UUUAAUUUUUUUUUUUUACAAGCUUUUUGCUCGUCUUAUACAUGAGGAUCACCCAUGUGGAUGGAGGGUAAAUUAUC [JMF 85] (puzzle: Sensor v3, turn-off variant 2)",25.6,,,14.4,16.9,
GCCAGAGCAGGAUAUUCAAUAUCACACAUGAGGAUCACCCAUGUCCAGCGAAAGCUGGAGGGAGAAGGGCUCUGGC [Fiskers Ex 5 - 12] (puzzle: Exclusion 5),61.4,,,18.8,88.2,
AGAUAGUUAGGAUAUACAUGAGGAUCACCCAUGUAGAAAAGUGGCUAAUGAGACUCCGGUAGAAGGAACAAAAU [Isanqurama] (puzzle: Exclusion 3),20,,,41.7,27.7,
ACCUCACAUGAGGAUCACCCAUGUCAGGAUAUGUACCUGGCCAAGACAAAAGCCAGAAGCAGAAGGGACUGCGG [Enrionerdi] (puzzle: Exclusion 1),129,,,72.5,93.6,
"UCUUCACAUGAGGAUCACCCAUGUCAGGAUAUAAGGUCUUGUCUACGUUGAAGGGACUUUAGAAGGGACACUUG [EX1 B.6] (Eterna round: R97, puzzle: Exclusion 1)",,107,36,,,
UAUUUGUCAGGAUAUGAGUCGUAGAACAAUAGUACUACGUCUCAGAAGGGACAUGAGGAUCACCCAUGUGCCUC [Fiskers Ex 4 Super Stable 44 mod 29] (puzzle: Exclusion 4),25.5,,,,,
"CAAUAGGGAGGAUAUCCAAUAUAUGACAUGAGGAUCACCCAUGUUUCCACUCGUACCUCCGGAGAAGGCCCAUAAG [Ex5 #6] (Eterna round: R97, puzzle: Exclusion 5)",,21.3,24.1,,,
"AUUUAGUGAGGAUAUGGUAACGUUUACAUGAGGAUCACCCAUGUUUCAUGGGACUAGAGACUAGAAGGCACUAACG [JR_Ex5_Sub029] (Eterna round: R97, puzzle: Exclusion 5)",,291,306,,,
"AGUGACUUAGGAUAUUGGCAUGAAGACAUGAGGAUCACCCAUGUCCUCGUAGUCAUUCGCCGAGAAGGGAGAGAUU [Eternabot (L2) Solution 50] (Eterna round: R97, puzzle: Exclusion 5)",,126,84.4,,,
GGAGAGUCAGGAUAUCGAAGGUAGAGAAGAGGAGAGUGGUACGAGAAGGGACAUGAGGAUCACCCAUGUAGGUG [JR_Exclusion4)Sub011] (puzzle: Exclusion 4),645,,,457,452,

Sequence,apparent KD of MS2 coat protein [1] [nM],apparent KD of MS2 coat protein (input ligand: FMN 200 uM) [nM],apparent KD of MS2 coat protein (input ligand: none) [nM],apparent KD of MS2 coat protein [2] [nM],apparent KD of MS2 coat protein [3] [nM],apparent KD of MS2 coat protein [4] [nM]
"AAUAAGUUAGGAUAUACAUGAGGAUCACCCAUGUCCCACCCGUUACCUAUGACCAUAUGUAGAAGGAGCAAUAA [Exy#2] (Eterna round: R97, puzzle: Exclusion 3)",,62.1,32.7,,,
"ACAAGCUUUUUGUUCGUCUUAUACACUCCUAAGAGGACAACAUGAGGAUCACCCAUGUAACAAAGACGAACUCAUGU [Sesor Array 10 - Jieux - Sensor v3, turn-off variant 2] (puzzle: Sensor v3, turn-off variant 2)",96.3,,,14.3,11.4,
UGAUCUUGUGUUAGGAUAUGCUGGUUUUUUUUUCAGCAGAAGGGACAUGAGGAUCACCCAUGUUCUCUCUUUUU [Magic-10] (puzzle: Brourd's mod of Exclusion 4),15,,,,,
GUGGUACAUGAGGAUCACCCAUGUUAGGAUAUCGCGUGAGGUUUUACUUCCGCACACGCGAGAAGGGACGUCUU (puzzle: Exclusion 1),41.4,,,,,
"AGUACUGACACGUUGGUGUUAGUACAAUAAGCUUGUGACACAUGAGGAUCACCCAUGUCCUCAUAAGCUCGUCUUAU [salish99_TOv2_r2_094] (Eterna round: R96, puzzle: Sensor v3, turn-off variant 2)",,22.9,25.4,,,468
UUCCAGACAGGAUAUCUAGUGAGCAACAUGAGGAUCACCCAUGUGACCAUCACCGCCCGCAGAGAAGGGUCAACAG [Inbilaus] (puzzle: Exclusion 5),41.1,,,55.4,40.2,
"AACCGGCGGACCGAAGCUUUUUGCUUGUUUUAUACUACUACAUGAGGAUCACCCAUGUCGUGGUGGUCUGUUGUAGA [Bibe] (puzzle: Sensor v3, turn-off variant 2)",15.7,,,38.9,33.2,
"CUGCUGGAGUUUUGCUUUGGUCGUACAUGAGGAUCACCCAUGUAGGAUAUGGUAAAAUUCGCCUGCUAGAAGGAUAGAGUGGUC [salish99_ExNG3_r04_621] (Eterna round: R96, puzzle: Exclusion NG 3)",,35.5,32.4,,,23
"UGCGAAGAGUGAGGAUAUGUGCGACAAAGUUGCACAGAAGGCACAUGAGGAUCACCCAUGUAAGCUAGGUCGAAAGACCUAGCG [Omei Exc(NG)1 Av5] (Eterna round: R96, puzzle: Exclusion NG 1)",,106,43.4,,,40.6
GAGAUGUGAGGAUAUCUGGACCGUGGAAGAGCCACGGUCCGAGAGAAGGCACAUGAGGAUCACCCAUGUGAUGA [Inerusce] (puzzle: Exclusion 4),42.8,,,,,
"CAGUACUGAGGAUAUACAUGAGGAUCACCCAUGUGAUUUGGUGCACGCGUACGUGUACGUAGAAGGCAGUACUG [JL 3.27 m5] (Eterna round: R97, puzzle: Exclusion 3)",,363,24.2,,,
"UUAAAUCAUGUAGGAUAUGCGUGGCGAAGCUAUGCAGAAGGACAUGAGGAUCACCCAUGUUCUUCGGUCUGCGUACAGAUCGAA [JL ENG1 1.07] (Eterna round: R96, puzzle: Exclusion NG 1)",,316,26.8,,,20.6
"UAUUAGCAAGCAAAUGGGUACAUGAGGAUCACCCAUGUGCUCGUCUUAUAAGGUACUGUGACGAAAGUCCCGGUACC [mod--Eli6] (Eterna round: R97, puzzle: Sensor, turn-off variant 1)",,28.9,21.9,,,
"AAUUAACAUGUAGGAUAUCUGCACGUUUAGUGCAGAGAAGGACAUGAGGAUCACCCAUGUAUAGCGACUUCGGUCGCAAUAAUU [ENG1/2-B2] (Eterna round: R96, puzzle: Exclusion NG 1)",,377,131,,,105
"AGUACUAACACGAAAGUGUUAGUACAAUAAGCUUGUGGAACAUGAGGAUCACCCAUGUCCUCAUAAGCUCGUCUUAG [Mat - Sensor v3 - Turn-off var 2 - D26] (puzzle: Sensor v3, turn-off variant 2)",62.3,,,15.9,13,
"GAAAACGCAGAGGAUAUAUCAGAUCAAAGCUGCAUAGAAGGCUGCACAUGAGGAUCACCCAUGUGGUCUUCAAU [Mat - Exclusion 6 - JL Mod - D5] (Eterna round: R97, puzzle: Exclusion 6)",,282,23.8,,,
"GUCAGCUCGUGAGGAUAUACAUGCGUGCUUCGGCACGAAUUUAAGAUCACAUGAGGAUCACCCAUGUAGAAGGUACGAGCUGAU [ENG2/3-C2] (Eterna round: R96, puzzle: Exclusion NG 2)",,590,387,,,320
